Test results published in publication PMC2823633 (The Journal of neuroscience : the official journal of the …, 2009).

T1: GST fusion of the Mint1 PDZ-2 domain (740-825) (UniProt Q02410 740-825, Cys 742 replaced with Ser)
T1 sequence (looked up): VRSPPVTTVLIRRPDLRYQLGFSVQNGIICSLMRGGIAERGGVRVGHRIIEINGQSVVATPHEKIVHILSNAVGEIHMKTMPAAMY


Target: T1, GST fusion of the Mint1 PDZ-2 domain …
Assay: ELISA

binding result | Binder
binds | GVPARTQVAVAV [doubly substituted peptide GVPARTQVAVAV]
binds | GVPARTQVEVWV [synthetic artificial peptide GVPARTQVEVWV]

More lines, now with the values behind:

Binder | binding result
GHLSESSQVRWL [synthetic artificial peptide GHLSESSQVRWL (positive control)] | binds
ASYCKQRNIVWL [synthetic artificial peptide ASYCKQRNIVWL (positive control)] | binds
TAKCAARFPTWL [synthetic artificial peptide TAKCAARFPTWL] | binds
